21 sequences from the supplement of paper PMC9170038 can be followed below.

The test system of the data set is K4 kissing-loop RNA reporter. Briefly: apparent KD of K4 kissing-loop reporter; higher = weaker reporter binding. The conditions noted are these: Eterna round: R107. The method, then: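 RNA-MaP round R107: designed RNA switches with theophylline, tryptophan, arginine or FMN aptamers are transcribed on-chip within common flanks. They are titrated with a labelled K4 kissing-loop RNA reporter in RNA-MaP buffer (100 mM Tris pH 7.5, 80 mM KCl, 4 mM MgCl2), without ligand or with the indicated ligand. Median apparent KD per design.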

[1] abbreviates: input ligand: theophylline 20 uM.
[2] abbreviates: input ligand: tryptophan 2.4 mM.
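Note: bound reporter read as fluorescence of individual clusters on recovered sequencing chips by microscopy, with normalized cluster intensities fitted with a binding model.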

Turning to “UGUACCGAGUCAGGAUAUGGCGUCGAAAGACGAAUCCUAGUGAUGUUAGCGAUCUGCGAAAGCAGUCCAGAAGGGACUUGGUACU [FmnBS 26 C50]”, the “apparent KD of K4 kissing-loop reporter” value was determined as 0.219 µM (input ligand: FMN 200 uM); 0.338 µM (input ligand: arginine 13.2 mM); 0.438 µM (input ligand: none); 0.371 µM under setting [1]; 0.29 µM under setting [2].
For the sequence “AGACUACUGAUAGGAUAUAACAUACUACCUCGUAUACCAAAGGUAUACGAGGCCCUUCUAGUGAUGUUAGAAGGGUCGGUAGUCA [Omei KL FMN B Exc B v5]”, the “apparent KD of K4 kissing-loop reporter” value reads like this: (input ligand: FMN 200 uM) 0.0935 µM; (input ligand: arginine 13.2 mM) 0.0764 µM; (input ligand: none) 0.0795 µM; under setting [1], 0.0812 µM; under setting [2], 0.0832 µM.
Taken in the same sequence, the figures for “GGUGUUGUUUGUGCCGCCUUCCUCGUUCCUCGAGGACCGGUACGGCCGCCACUCGAGUGAUGUUUGGGUAGCGAUCCCUGCUAGU [Bdazzled - #12 Exc. Tryptophan A]” were 0.877 µM, 0.696 µM, 1 µM, 0.822 µM and 0.892 µM.
In the same order, the values of “AAGGCCAGUGAUGUUGGCUUAACCUUCGAUACCAGAACCGAUCGUUUCCCUUGGCAGCGAACACAAUACCUCACAGCGUUAAGUA [theeternabot_sameState_KL_Theo_A_8]” are 0.125 µM, 0.134 µM, 0.125 µM, 0.149 µM and 0.114 µM.
In the same order, the values of “GUGAGUGACGGAGGAUAUGCGAUAGAUGUAGGAAAAUUAGUGAUGUUAGUUAUGGUAGAGAUAGAAGUAGAAGGUUGGUGUGUGU [RHig 3/7]” are 0.551 µM, 0.394 µM, 0.561 µM, 0.585 µM and 0.395 µM.
With “UAUAUAGUGACGGCCGCCACUAUAUUAAUGUUUUUGUUAGAGUGAUGUUUUGUUUUUUAAUUUUAUAGGACCGGGUUAUAUGUUA [xnxmullin]”, the “apparent KD of K4 kissing-loop reporter” value reads like this: (input ligand: FMN 200 uM) 0.275 µM; (input ligand: arginine 13.2 mM) 0.155 µM; (input ligand: none) 0.253 µM; under setting [1], 0.335 µM; under setting [2], 0.188 µM.
Regarding “AGCUGCCGAAUAGAUACCAGUGUCUUUAGUGAUGUUUCAGAGCUGGCACGAUCAGAAGGUCACCCUUGGCAGCUAGUGCCAGCGU [theeternabot_exclusion_KL_Theo_B_39]”, the “apparent KD of K4 kissing-loop reporter” value reads like this: (input ligand: FMN 200 uM) 0.34 µM; (input ligand: arginine 13.2 mM) 0.145 µM; (input ligand: none) 0.261 µM; under setting [1], 0.344 µM; under setting [2], 0.267 µM.
In the same order, the values of “AAGGUAUCACCAACUUGUAACAUAGGUGAUACCAGCAUCGAAAGAUGCCCUUGGCAGCACCAACUUGCAGUGAUGUUGCAAGUAA [(T)'-(H)'-(T1)-(T2)-(H1)-(H2)_Design11]” are 0.166 µM, 0.14 µM, 0.152 µM, 0.152 µM and 0.144 µM.
On to “UAAUAAUAAUGAUAAUAAUCAAGUGGUGGACGAGGACCGGUACGGCCGCCACUCGAAAAUGCAGUGAUGUUGUAAUACGGAUAAU [Exclusion - Tryptophan A (Freestyle 2)]”, for which the “apparent KD of K4 kissing-loop reporter” value came out at 0.0983 µM (input ligand: FMN 200 uM); 0.18 µM (input ligand: arginine 13.2 mM); 0.133 µM (input ligand: none); 0.203 µM under setting [1]; 0.0943 µM under setting [2].
For “CCAUCGCUAUUCGAUACCAGCUACUUAGUGAUGUUAAGUUAAAAUCCAUUGUAGAUGGAAAGCCCUUGGCAGCGAAUAGUGAUGG [Theophylline B K4 22]”, the “apparent KD of K4 kissing-loop reporter” value runs as follows: (input ligand: FMN 200 uM) 0.44 µM; (input ligand: arginine 13.2 mM) 0.398 µM; (input ligand: none) 0.465 µM; under setting [1], 0.21 µM; under setting [2], 0.41 µM.
In the same order, the values of “UUUUUAUAAGAGGAUACCAGUACAAAUAAAGUACAUUAAUAGUAGAGUGAUGUUCUAAAGUACCCUUGGCAGCUUAGAGUAAGUU [ExTheophylB.C]” are 0.161 µM, 0.281 µM, 0.174 µM, 0.239 µM and 0.115 µM.
In the same order, the values of “UGUACCGAGUCAGGAUAUGUCGUCGAAAGACGAAAUGGAGUGAUGUUCCUUAAACUGCGAAAGCAGACAGAAGGGACUUGGUACU [FmnBS 29 #SwitchBubble #StaticStem #DoubleMagnetSystem]” are 0.16 µM, 0.278 µM, 0.385 µM, 0.331 µM and 0.275 µM.
As to “AAUGUAAUGACGGCCGCCACUGAUUACCAGUGAUGUUGGUAAAGAACUUUAUAAGUCCUGGAAACCAGGACCGGGUCAACGGUCC [Tryp B Ex t1]”, the “apparent KD of K4 kissing-loop reporter” value by setting is: (input ligand: FMN 200 uM) 0.345 µM; (input ligand: arginine 13.2 mM) 0.294 µM; (input ligand: none) 0.318 µM; under setting [1], 0.309 µM; under setting [2], 0.258 µM.
In the same order, the values of “GCCGUAGAUUGAAGGAGCGGUGAAUGCAGGUGAGUCCUUUAGAUGUUUAGUGAUGUUAAACACCAGGUAGGUCGCAAUCUACGGC” are 0.235 µM, 0.178 µM, 0.203 µM, 0.2 µM and 0.192 µM.
In the same order, the values of “UUAUAUACGAGUGAUGUUCGUUAUUUAUCAGAGGAUAUGCUUAAAUGCAGAAGGCUGUUUUUCUAUUUGAUAUUAAAUUUUAUAA [JR_Nu3_ExcFMNA_Sub027]” are 0.0816 µM, 0.0893 µM, 0.0696 µM, 0.0811 µM and 0.0581 µM.
In the same order, the values of “UAUAUAGUGACGGCCGCCACUAUAGUGAUGUUAUUGUUAGAGUGAUGUUUUGUUGUUUAAUUUUGUAGGACCGGGUUAUAUGUUA [tbbtmullin]” are 0.632 µM, 0.418 µM, 0.504 µM, 0.497 µM and 0.446 µM.
With “AAUGUAUACUGAAGGAGCGAGUAGUGGAAACAUAAACUCAAUGCGAGUGAUGUUCGCAGUACUCAGGUAGGUCGCAGUAAUGGUA [Exclusion Arginine B Gf 8]”, the “apparent KD of K4 kissing-loop reporter” value reads like this: (input ligand: FMN 200 uM) 0.522 µM; (input ligand: arginine 13.2 mM) 0.311 µM; (input ligand: none) 0.537 µM; under setting [1], 0.468 µM; under setting [2], 0.406 µM.
Taken in the same sequence, the figures for “AGCAUUUUCAGAAGGAGCGUGAAUUAUUCUUAAGUAUAUUAUACGAGUGAUGUUCGUAUUUCACAGGUAGGUCGCUGAUAUAGCA [JR_SSArginiB_Sub003]” were 0.0574 µM, 0.0892 µM, 0.0546 µM, 0.0762 µM and 0.0468 µM.
Taken in the same sequence, the figures for “AUAGGAGUGAUGUUCCUUAGUCUCUCCGAUACCAGUAUGGAAACAUACCCUUGGCAGCGGGAGACCGCAGAUUAGGAAACUAGUC [Theophylline A K4 5]” were 0.178 µM, 0.179 µM, 0.185 µM, 0.205 µM and 0.172 µM.
For “GUAUAAAUAUAAGGAUAUGCAGGGAAAGUAAGAAUGGGUUAGUUGAACUUUAGUGAUGUUGAGGAAGCAGAAGGUGUAUAUGUGU [FMN B same state]”, the “apparent KD of K4 kissing-loop reporter” value is, setting by setting: (input ligand: FMN 200 uM) 0.65 µM; (input ligand: arginine 13.2 mM) 0.272 µM; (input ligand: none) 0.381 µM; under setting [1], 0.322 µM; under setting [2], 0.319 µM.
Consider “UCCGGUCGGUGAGCCAGUGAUGUUGGUCAGAAGGAUAUCUGGCAACAGAGAAGGUCUGCAUCAGCCUAGAUAUCCUGGCGACCGG”, for which the “apparent KD of K4 kissing-loop reporter” value by setting is: (input ligand: FMN 200 uM) 0.145 µM; (input ligand: arginine 13.2 mM) 0.0914 µM; (input ligand: none) 0.079 µM; under setting [1], 0.0842 µM; under setting [2], 0.0692 µM.
